# Laboratory results taken from the nanobody polyreactivity screen of Harvey et al. (2022).
# Experiment: yeast display, Sf9 membrane polyspecificity reagent, FACS + sequencing; frameworks hold sequencing errors
# In short: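 A synthetic nanobody library was expressed on Saccharomyces cerevisiae BJ5465 by galactose induction for 36–48 hours. The library was stained for 1 hour at 4 °C with 10% biotinylated, detergent-solubilized Sf9 membrane reagent and enriched with streptavidin microbeads before FACS. Low and high (top ~1%) gates were set on anti-HA fluorescence for expression and streptavidin fluorescence for reagent binding, and each polyreactivity label reflects the gate of origin.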
row,Sequence,polyreactivity (PSR sort gate)
1,QVQLVESGGGLVQAGGSLRLSCAASGSTYRYYAMGWYRQAHGKERELVAAINSSCGSTYYADSVKGRFTISRDNAKNTVYLQMNSLKPEDTAVYYCATVYAYTGWLTNPREYSRYDYWGQGTQVTVSS,low polyreactivity
2,QVQLVESGGGLVQAGGSLRLSCAASGRTIWTYVMGWYRQAPGKERELVAAISRSGSSTYYADSVKGRFTISRDNAKNTVYLQMNSLKPEDTAVYYCNKVDGTTLDDHYMDYWGQGTQVTVSS,low polyreactivity
3,QVQLVESGGGLVQAGGSLRLSCAASGLIFTSYAMGWYRHAPGKERELVAAISTSGGRTYYADSVKGRFTISRDNAKNTVYVQMNSLKAEDTAVYYCYANWRYPYDYWGQGTQVTVSS,high polyreactivity
4,QVKLVESGGGLVQAVGILSLSCAASGSILGLYAMGWYRQAPGKERELVASITSSGSTYYADSVKGRFTISRDNAKNTVYLQMIILKPEDTAVYYCAAVVSYYYYIRYDYWGQGTQVTVSS,low polyreactivity
5,QVQLVESGGGLVQAGGSLRLSCAPSGFTFDFYAMGWYRQEPGKATELFAAINSGGSTNYADSVKGRFTISRDNAKNTVYLQMNSLKPEDTAVYYCNADWFTPAQPWYRYFIRYDYWGQGSQVTVSS,low polyreactivity
6,QVQLVETGGGLVQAGGSLRLSCAPSGNTIIRYAMGWYRQAPGKERELVAAISYSGGRTYYADSVKGRFTISRDNAKNTVYLQMNSLKPEDTAVYYCNAASRYGGDYWGPGTQVTVSS,high polyreactivity
7,QVQLVESGGGLVQAGGSLRLSCAASGSTFDYNAMGWYRPAPGKERELVAVISSGTRTYYADSVKGRFTISRDNAKNTVYLQMNSLKPEDTAVYFCNKRFYPEHYYWGQGTLVTVSS,high polyreactivity
8,QVQLVESGGGLVQAGGSLRLSCAASGSIIRRYAMGWYRPAPGKERELVAAISSGGSTYYADSVKGRFTISRDNAKNTVYLQMNSLKPEDTAVYYCAALYYQITTTHYLHLHYDYWGEGTQVTVSS,low polyreactivity
9,QVKHVESGGGLVQAGCILRLSCSASGSTFARYAMGWYRQSPGKERELVAGISQSGGTTYYADSVKGRFTISRDNEKNTVYLQMNSLKPEDTAVYYCAARRWVAYTLEYWGQGTQVTVSS,high polyreactivity
10,QVQLVESGGGLVQAGGSLRLSCAASGSTFSENAMGWYRQAPGKERELVAAISWGGGSTYYADSVKGRFTISRDYAKNTVYLQMNSLKPEDTAVYYCNADVFDDYGYFESDYWGQGTQVTVSS,low polyreactivity
11,QVQLVESGGGLVQAGGSLRLSCAASGYTFASNAMGWYRPAPGKERELVAAITRGGSTNYADSVKGRFTISRDNAKNTVYLQMNSLKPEDTAVYYFAAPRYRHTRKGGYWGQGTQVTVSS,low polyreactivity
12,QVQLVESGGGLVQAGGSLRLSCAASGSTFYVYAMGWYRQAPGKERELVAAITVRGGSTYYADSVKGRFTISRDNAKYTVYLQMNSLKPEDTAVYYCAVDVSKPYYEMDYWGQGTQVTVSS,high polyreactivity
13,QVQRVESGGGLVQAGGSLRLSCAASGSIIAGYPMGWSRQAPGKERELVAGIRRGGSTNYADSVKGRFTISRDNAKKTVYLQMNSLKPEDTAVYYCNAQRTRSYVLRTFDYWGQGTQVTVSS,high polyreactivity
14,QVQLVESGGGLVQAGGSLRLSCAASGRTIQYYTMGWYRQAPGKERELVAGITYRGSSTYYADSVKGRFTISRDNAKNTVYLQMNSLKPEDTAVYYCAAGYWAYVWYYYWGQGTQVTVSS,high polyreactivity
15,QDQLVESGGGLVQAGGSLRLSCAASGSTMRWYAMGWYRQAHGKERELVARISWTTGSTYYADSVKGRFTISRDNAKNTVYLQMNSLKPEDTAVYYCAVASGQSFYWGQGTQVTVSS,high polyreactivity
16,QVQLVESGGGLVQAGGSLRLSCAASGSIFYYYAMGWYRQAPGKERELVAGITVSGGRTYYADSVKGRFTISRDNAKNTVYLQMNSLKPEDTAVYYCAADGRAKYDYWGQGTQVTVSS,low polyreactivity
17,QVQLVESGGGLVQAGGSLRLSCAASGRIFYSYAMGWYRQAPGKERELVAAITRSVARTYYADSVKGRFTISRDNAKNTVYLQMNCLKPEDTAVYYCAADWYQWGGRYYAPRYYYWGQGTQVTVSS,high polyreactivity
18,QVQLVESGGGLVQAGGSNRLSCAASGCIFSRYLMGWYRQAPGIETELVADISGSRGRTYYADSVKGRFTISRDNAKKTVYLQMNSLKPEDTAVYYSNKVWFGYSGVDDYWGQGTQVTVSS,high polyreactivity
19,QVQIVESGGGLVEAGGSLRLTCAASGSIFGGNAMGWYRQAPGKERELVAAITSTVSTNYADSVKGRFTISRDNAKNTVYLQMNSLKPEDNAVYYCATDTSNVEGDYWGQGTQVTVSS,low polyreactivity
20,QVQLVESGGGLVQAGGSLRLSCAASGSIFNSYAMGWYRQAPGKERELVAAISGSGTRTYYADSVKGRFTISRDNAKNTVYLQMNSLKPEDTAVYYCAGYGYWGQGTQVNVSS,high polyreactivity
21,QVQLVESGGGLVQAGGSLRLSCAASGFIFRYNAMGWYRQAPGKERELVAVITSGDNTYYADSVKGRFTISRDNAKNTVYLQMNSLKPEDTAVYYCAARYRHYFVRGGYWGQGTQVTVSS,high polyreactivity
22,QVQLVESGGGLVQAGGSLRLSCAASGIIFDWYAMGGYRQAPGKERELVAAITSGGGSTYYADSVKGRFTISRDNAKNSVYLQMNSLKPEDSAVYYCAADYQTIGWGYDYWGQGTQVTVSS,low polyreactivity

row,Sequence,polyreactivity (PSR sort gate)
1,QVQLVESGGGLVQAGGSLRLSCAASGSIFTGYAMGWYRQAPGKERELVAAISYSTGRTYYADSVKGRFTISRDNAKNTVYLQMNSLKPEDTAVYYCAARYREQYDYWGQGTQVTVSS,low polyreactivity
2,QVQLVESGGGLVQAGGSLRLSCAASGSIFLPNAMGWYRQAPGKEWELVAAISWSGGSTYADSVKGRFTISRDNAKNTVYLQMNSLKPEDTAVYYCAADDGFTPRDLYVGYDYWGLGTQVTVSS,low polyreactivity
3,QVQLVESGGGLVQAGGSLRLSCAASGSTFYRYVMGWYRQAPGKERELVAAITWRGGTTYYADSVKGRFTISRDNAKNTVYLQMNRLNPEDTAVYYCNADRYLGVSEYKTYEYEYWGQGTQVTVSS,low polyreactivity
4,QVQLVESGGGLVQAGGSLRLSCAASGITFFYYAMGWYRQAPGKERELVAAINWSGRTYYADSVKGRFTISRDNAKNTVYLQMNSLKPEDTAVYYCAAVTYGPGVSGMDYWGQGTQVTVSS,low polyreactivity
5,QVQLVKSGGGLVQAGGSLRLSCAASVRTILYNAIGWYRQAPGKESELVAAITGGGSTYYADSVKGRFTISRDNAKNTVYLQMNSLKPEDTAVYYCAADLSVVRYDYWGQGTQVTVSS,low polyreactivity
6,QVQLVESGGGLVQAGGSLRLSCAASGTIFTVYALGWYRQPPGKERELVAGISSGAGTTYADSVKGRFTISRDNAKNTVYLQMNSMKPEDTAVYYCAAYTWDTDHYWYGYVPYDYWGQGTQVTVSS,low polyreactivity
7,QVQLVESGGGFVQAGGSLRLSCAASGRTFGHNDMGWYIQAPGKERELVATNSADGSTNYADSVKGRITISRDNEKKTVKLQMNSLKPEDTAVSYCAKDYQYVAYDYWGQGTQVTVSS,low polyreactivity
8,QVQLVESGGGLVQAGGSLRLSCAASGRIFDFNAMGWYRQAPGKEREFVAAIRTSGGDSTYYADSVKGRFTISRDNAKTTVYLQMNSLTPEDTAVYYCAKTVWWYYRYPFDYWGQGTQVTVSS,low polyreactivity
9,QVQLVESGGGLVQAGGSLRLSCAASGRTFYPYAMGWYRQAPGKERELVAAITQSGGSTYYADSVKGRFTISRDNAKNTVFLEMNSLKPEDTAVYYCAKRGYDNYPFYYWGQGTQVTVSS,high polyreactivity
10,QVQLVESGVGLVQAGGSLRLSCAASGFTFSYNALGWYRQAPGKERELVAAISSSGGSTYYADSVKGRFTISRDNAKNTVYLQMNILKPEDTAVYYCAVPYLTLYGRTYDYWGHGTQVTVSS,high polyreactivity
11,QVQVVESGGGLVQAGGRLRLSFAASGFTFESYAMGWYRQAPGKERELVPAISDGGGDTYYADSVKGRFTISRDNAKNTVYLQMNSLKPEDTAVYYCAAEWDGNWSRCAGGYDYWGQGTQVTVSS,low polyreactivity
12,QVQLVESGGGLVQAGGSLRLSCAASGRIFDVYAMGWYRQAPGKERELVAAITWSGTSTYYADSVKGRFTISRDNAKNTVYLQMNSLKPEDTAVYYCAAEVAYTDTEYFWYYYWGQGTQVTVSS,high polyreactivity
13,QVQLVDSGGGLVQAGGSLRLICAASGRIFIYNAMGWYRQAPGKERELVAAITRGGNTNYADSVKGRFTISRDNAKNTVYLQMNSLKPEDTAVYYCAAAIRYGSRHRGYWGQGTQVTVSS,low polyreactivity
14,QVQLVESGGGLVQAGGSLRLSCAASGSTFRTYAMGWYRQAPGKERELVASIDSTGSTNYADSVKGRFTISRDNAKNTVYLQMNSLKPEDTAVYYCAAETYSYPPFYAYDYWGQGTQVTVSS,low polyreactivity
15,QVQLVESGGGLVQAGGSLRLSCAASGSIFRGNAIGWYRQAPGKDRELVAAISWNGVSTYYADSVKGRFTISRDNAKHTVYLQMNSLKPEDTAVYYCPTVGLRRLFVKPGTLKDYWGQGTQVTVSS,low polyreactivity
16,QVQLVESGGGLVQAGGSLRLSCAASGFTFRVNAMGWYRQAPGKERELVARISSSGGITYYADSVKGRFTISRDNAKNTVYLQMNSLKPEDTAVYYCAKEVYSGYSTRARSRYYEYYYWGQGTQVTVSS,high polyreactivity
17,QVQLVESGGGLVQAGGSLRLSCAPSGRISGWYAMGWYRQAPGKQRELVASISSSGGSTYYADSVKGRFTISRDNAKNSVYLQMNSLKPEDTAVYYCAVRRYNWSFYRGYDYWGQGTQVTVSS,high polyreactivity
18,QVQLVESGGRLVQAGGSHRLSCAASGRTFNVYAMGWYRQAPGKERELVASISSSDTTNYADSVKGRFTISRDNAKNTVYLQMNSLKPEDTAVYYCAADYTPDLLSKVDYCGQGTQVTVSS,low polyreactivity
19,QVQLVESGGGLVQAGGSLRLSGSASGRTFSQYVMRWYRQAPGQERELVAAISKRGGRTYYADSVQGRFTISRDNAKNTVYLQMNSLNPEDTAVYYCNDVYRYYPFDYWGQGTQVTVSS,high polyreactivity
20,QVQLVESGGGLVQAGGSLRLSCAASGIIFYRYAMVWYRQAPGKERELVAAITWSGVSTSYADSVKGRFTISRDNAMNTVYLQMTSLKPEDTAVYYCNKDQGTLYGDMDSWGQGTQVTVSS,low polyreactivity
21,QVQLVESGGGLVQAGGSLRLSCAASGNTFNIYAMGWYRQAPGKETEFVAAITVSDTSTYYADSVKGRFTISRDSAKNTVYLQMKSLKPEDTAVYYCNADWWGTYDYYYWGQGTHVTVSS,low polyreactivity
